Assay results: article PMC11638004, “Phosphorylation of auxin signaling repressor IAA8 by heat-responsive MPKs causes defective flower development” (Plant Physiology, 2024)

Tests used:
Experiment in all cases: pull-down; 2 μg GST-IAA8 or GST on glutathione-Sepharose-4B beads, 5 μg His-MPK added, overnight at 4°C; 50 mM Tris-HCl pH 7.5, 200 mM NaCl, 0.1 mM EDTA, 0.5 mM DTT, 1% Triton X-100; four washes; immunoblot with anti-His
Conditions in all cases: both partners purified
His-MPK3 = biological target: T1, His-MPK3 (Arabidopsis thaliana, UniProt Q39023 1-370)
T1 construct: The N-terminal position of the His tag is read from the name His-MPK3 and the vector pQE30; also called His-fused MPK3; source: E. coli M15, purified (Ni-NTA agarose); not shown: His, N-terminal, kept
T1 sequence (looked up): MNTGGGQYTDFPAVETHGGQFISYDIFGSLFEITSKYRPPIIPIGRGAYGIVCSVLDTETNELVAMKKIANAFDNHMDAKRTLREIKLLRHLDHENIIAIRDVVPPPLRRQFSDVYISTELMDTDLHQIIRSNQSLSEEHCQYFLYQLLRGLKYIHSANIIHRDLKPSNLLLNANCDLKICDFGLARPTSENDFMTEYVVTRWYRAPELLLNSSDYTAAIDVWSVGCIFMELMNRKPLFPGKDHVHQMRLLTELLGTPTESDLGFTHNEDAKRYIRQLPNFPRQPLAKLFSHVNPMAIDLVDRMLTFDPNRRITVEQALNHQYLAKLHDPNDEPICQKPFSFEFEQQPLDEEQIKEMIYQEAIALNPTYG

His-MPK6 = biological target: T2, His-MPK6 (Arabidopsis thaliana, UniProt Q39026 1-395)
T2 construct: The N-terminal position of the His tag is read from the name His-MPK6 and the vector pQE30; also called His-fused MPK6; source: E. coli M15, purified (Ni-NTA agarose); not shown: His, N-terminal, kept
T2 sequence (Q39026 whole entry, the tested form may be a part): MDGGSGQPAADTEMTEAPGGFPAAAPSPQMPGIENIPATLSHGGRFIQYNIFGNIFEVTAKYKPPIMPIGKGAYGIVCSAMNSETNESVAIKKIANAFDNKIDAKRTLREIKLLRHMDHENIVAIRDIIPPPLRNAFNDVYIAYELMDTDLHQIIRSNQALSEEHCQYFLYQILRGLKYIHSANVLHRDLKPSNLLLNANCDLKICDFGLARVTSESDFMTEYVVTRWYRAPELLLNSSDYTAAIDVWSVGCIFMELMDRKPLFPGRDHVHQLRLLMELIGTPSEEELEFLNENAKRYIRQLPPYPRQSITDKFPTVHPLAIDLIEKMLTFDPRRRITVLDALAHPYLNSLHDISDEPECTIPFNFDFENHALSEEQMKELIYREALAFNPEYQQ

His-MPK4 = biological target: T3, His-MPK4 (Arabidopsis thaliana, UniProt Q39024 1-376)
T3 construct: The N-terminal position of the His tag is read from the name His-MPK4 and the vector pQE30; also called His-fused MPK4; source: E. coli M15, purified (Ni-NTA agarose); not shown: His, N-terminal, kept
T3 sequence (looked up): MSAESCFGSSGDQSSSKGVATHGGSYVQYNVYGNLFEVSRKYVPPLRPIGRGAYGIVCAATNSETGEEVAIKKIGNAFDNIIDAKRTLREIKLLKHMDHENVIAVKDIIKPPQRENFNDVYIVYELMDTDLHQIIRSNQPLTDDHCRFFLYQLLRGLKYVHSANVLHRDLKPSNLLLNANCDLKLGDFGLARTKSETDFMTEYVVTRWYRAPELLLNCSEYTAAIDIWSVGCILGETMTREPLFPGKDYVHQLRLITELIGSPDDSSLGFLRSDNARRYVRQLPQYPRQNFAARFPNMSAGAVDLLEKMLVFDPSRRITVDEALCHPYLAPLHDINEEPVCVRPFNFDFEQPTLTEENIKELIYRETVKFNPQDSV

Measured: binding result

B1: GST-IAA8 (natural protein, Arabidopsis thaliana, UniProt Q38826 1-321, looked up)
chain: MSYRLLSVDKDELVTSPCLKERNYLGLSDCSSVDSSTIPNVVGKSNLNFKATELRLGLPESQSPERETDFGLLSPRTPDEKLLFPLLPSKDNGSATTGHKNVVSGNKRGFADTWDEFSGVKGSVRPGGGINMMLSPKVKDVSKSIQEERSHAKGGLNNAPAAKAQVVGWPPIRSYRKNTMASSTSKNTDEVDGKPGLGVLFVKVSMDGAPYLRKVDLRTYTSYQQLSSALEKMFSCFTLGQCGLHGAQGRERMSEIKLKDLLHGSEFVLTYEDKDGDWMLVGDVPWEIFTETCQKLKIMKGSDSIGLAPGAVEKSKNKERV
notes: IAA8 (Indole-3-Acetic Acid 8), Arabidopsis thaliana, At2g22670, full length, amplified from an Arabidopsis cDNA library and cloned into pGEX-4T-1; The N-terminal position of GST is read from the name GST-IAA8 and the vector pGEX-4T-1; also called GST-IAA8^WT; GST-fused IAA8; source: E. coli BL21 (DE3), purified (glutathione Sepharose-4B); not shown: GST, N-terminal, kept
binds: all assays above
